In paper PMC6504924:

Experiments:
[1] = molecular target: NanoLuc:VEGFR2 fusion on cells (UniProt P35968)
[2] = molecular target: NanoLuc:VEGFR2 fusion on cells (UniProt P35968); assay: FRET or BRET; saturation binding on live HEK293T cells transiently expressing a NanoLuc:RTK fusion; increasing concentrations of DY605-labeled growth factor with and without excess (0.5 µM) unlabeled equivalent; 1.5 h at room temperature, OptiMEM; apparent affinities (EC50)

NanoLuc:VEGFR2 fusion on cells, sequence (P35968 20-1356): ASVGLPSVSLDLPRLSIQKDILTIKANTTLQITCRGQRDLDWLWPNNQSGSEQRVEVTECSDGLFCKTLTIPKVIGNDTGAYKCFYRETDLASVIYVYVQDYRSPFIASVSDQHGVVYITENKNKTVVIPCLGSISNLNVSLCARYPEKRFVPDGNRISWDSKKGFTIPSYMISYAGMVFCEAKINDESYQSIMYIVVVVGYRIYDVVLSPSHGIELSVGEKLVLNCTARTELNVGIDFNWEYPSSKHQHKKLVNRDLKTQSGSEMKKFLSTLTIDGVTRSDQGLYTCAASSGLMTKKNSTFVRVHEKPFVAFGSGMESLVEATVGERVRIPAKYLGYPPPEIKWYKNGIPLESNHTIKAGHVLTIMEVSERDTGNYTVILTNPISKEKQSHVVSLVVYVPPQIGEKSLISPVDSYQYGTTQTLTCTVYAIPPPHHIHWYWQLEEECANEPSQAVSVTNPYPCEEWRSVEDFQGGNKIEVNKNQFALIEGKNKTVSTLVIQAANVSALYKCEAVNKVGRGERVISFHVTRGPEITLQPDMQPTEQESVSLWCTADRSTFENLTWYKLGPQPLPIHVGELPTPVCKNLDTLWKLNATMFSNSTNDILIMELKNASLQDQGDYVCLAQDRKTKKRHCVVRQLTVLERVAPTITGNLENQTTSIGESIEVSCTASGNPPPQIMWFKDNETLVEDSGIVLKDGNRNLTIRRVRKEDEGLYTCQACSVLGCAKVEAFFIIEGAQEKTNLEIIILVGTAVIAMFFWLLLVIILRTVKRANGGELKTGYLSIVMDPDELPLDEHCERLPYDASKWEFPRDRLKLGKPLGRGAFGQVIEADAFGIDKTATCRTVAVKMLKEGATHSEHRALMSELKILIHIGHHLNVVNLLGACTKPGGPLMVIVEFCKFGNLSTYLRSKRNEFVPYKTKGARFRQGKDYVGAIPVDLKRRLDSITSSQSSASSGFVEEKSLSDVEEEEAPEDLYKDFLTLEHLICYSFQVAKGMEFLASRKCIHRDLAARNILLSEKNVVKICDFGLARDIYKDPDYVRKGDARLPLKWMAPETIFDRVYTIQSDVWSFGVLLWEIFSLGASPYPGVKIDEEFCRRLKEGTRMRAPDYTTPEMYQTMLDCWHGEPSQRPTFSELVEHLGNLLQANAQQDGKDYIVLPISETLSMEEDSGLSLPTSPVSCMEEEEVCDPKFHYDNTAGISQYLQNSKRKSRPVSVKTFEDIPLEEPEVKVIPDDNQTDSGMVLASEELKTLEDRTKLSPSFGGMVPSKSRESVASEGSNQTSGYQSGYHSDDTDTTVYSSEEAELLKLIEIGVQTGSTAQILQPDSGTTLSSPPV

Question: Which NFAT-luciferase reporter, 6 h stimulation; EC50 as fold against the unlabeled counterpart (printed as 'fold lower', weaker response) [1] does the source give for “VEGF165a homodimer labeled with 5-fold molar excess of DY605-NHS-ester (ligand)” here?
Answer: > 120 fold

Question: And the EC50 [2]?
Answer: 12 nM

Question: With “VEGF165a homodimer labeled with 2-fold molar excess of DY605-NHS-ester (ligand)” as the substance, how does the NFAT-luciferase reporter, 6 h stimulation; EC50 as fold against the unlabeled counterpart (printed as 'fold lower', weaker response) [1] read?
Answer: > 120 fold

Question: What about the EC50 [2] of the same substance?
Answer: 1.2 nM

Question: “CBT-labeled VEGF165a homodimer (vascular endothelial growth factor isoform VEGF165a labeled with DY605-PEG-CBT on the N-terminal cysteine) (ligand)” was tested. Which EC50 [2] did it give?
Answer: 0.045 nM
